Patent US20210316003A1 (Immunomedics, Inc., priority 2020, published 2021)

Test system: patients with diverse metastatic cancers
Assay: Phase I trial and phase II extension in diverse epithelial cancers: related adverse events (CTCAE v 4.0)
Format: in vivo, human

sacituzumab govitecan
Diarrhea ≥G3 (49 pts reporting related AE): 9% | Fatigue ≥G3 (49 pts reporting related AE): 9% | Nausea ≥G3 (49 pts reporting related AE): 0% | Neutropenia ≥G3 (49 pts reporting related AE): 28% | Vomiting ≥G3 (49 pts reporting related AE): 2% | Abdominal pain, Grade 3, patients (related AE, N = 47): 0 | Abdominal pain, Grade 4, patients (related AE, N = 47): 0 | Abdominal pain, TOTAL (related AE, N = 47): 11% | Alopecia, TOTAL (related AE, N = 47): 40% | Anemia, Grade 3, % (related AE, N = 47): (4%) | Anemia, Grade 3, patients (related AE, N = 47): 2 | Anemia, Grade 4, patients (related AE, N = 47): 0 | Anemia, TOTAL (related AE, N = 47): 13% | Deep vein thrombosis, Grade 3, % (related AE, N = 47): (2%) | Deep vein thrombosis, Grade 3, patients (related AE, N = 47): 1 | Deep vein thrombosis, Grade 4, patients (related AE, N = 47): 0 | Deep vein thrombosis, TOTAL (related AE, N = 47): 2% | Diarrhea, Grade 3, % (related AE, N = 47): (9%) | Diarrhea, Grade 3, patients (related AE, N = 47): 4 | Diarrhea, Grade 4, patients (related AE, N = 47): 0 | Diarrhea, TOTAL (related AE, N = 47): 47% | Dysgeusia, Grade 3, patients (related AE, N = 47): 0 | Dysgeusia, Grade 4, patients (related AE, N = 47): 0 | Dysgeusia, TOTAL (related AE, N = 47): 15% | Fatigue, Grade 3, % (related AE, N = 47): (9%) | Fatigue, Grade 3, patients (related AE, N = 47): 4 | Fatigue, Grade 4, patients (related AE, N = 47): 0 | Fatigue, TOTAL (related AE, N = 47): 55% | Febrile Neutropenia, Grade 3, % (related AE, N = 47): (2%) | Febrile Neutropenia, Grade 3, patients (related AE, N = 47): 1 | Febrile Neutropenia, Grade 4, % (related AE, N = 47): 4% | Febrile Neutropenia, Grade 4, patients (related AE, N = 47): 2 | Febrile Neutropenia, TOTAL (related AE, N = 47): 6% | Hypokalemia, Grade 3, % (related AE, N = 47): (2%) | Hypokalemia, Grade 3, patients (related AE, N = 47): 1 | Hypokalemia, Grade 4, patients (related AE, N = 47): 0 | Hypokalemia, TOTAL (related AE, N = 47): 11% | Nausea, Grade 3, patients (related AE, N = 47): 0 | Nausea, Grade 4, patients (related AE, N = 47): 0 | Nausea, TOTAL (related AE, N = 47): 53% | Neutropenia, Grade 3, % (related AE, N = 47): (24%) | Neutropenia, Grade 3, patients (related AE, N = 47): 11 | Neutropenia, Grade 4, % (related AE, N = 47): 4% | Neutropenia, Grade 4, patients (related AE, N = 47): 2 | Neutropenia, TOTAL (related AE, N = 47): 43% | Pyrexia, Grade 3, patients (related AE, N = 47): 0 | Pyrexia, Grade 4, patients (related AE, N = 47): 0 | Pyrexia, TOTAL (related AE, N = 47): 13% | Vomiting, Grade 3, % (related AE, N = 47): (2%) | Vomiting, Grade 3, patients (related AE, N = 47): 1 | Vomiting, Grade 4, patients (related AE, N = 47): 0 | Vomiting, TOTAL (related AE, N = 47): 32% | WBC Decrease, Grade 3, % (related AE, N = 47): (2%) | WBC Decrease, Grade 3, patients (related AE, N = 47): 1 | WBC Decrease, Grade 4, patients (related AE, N = 47): 0 | WBC Decrease, TOTAL (related AE, N = 47): 6%
